Results from the Immune Epitope Database (IEDB).

Assays:
Assay in all cases: IEDB peptide-MHC binding, purified MHC/competitive/radioactivity; filed as Kd, often an IC50 or EC50 that approximates it; ≥ and ≤ were set here for values at or beyond the usual limits of such assays
HLA-A*02:06 = settings: source organism: Vaccinia virus WR
HLA-A*02:03 = settings: source organism: Vaccinia virus WR
HLA-A*02:02 = settings: source organism: Vaccinia virus WR
HLA-A*31:01 = molecular target: HLA-A*31:01
HLA-A*33:01 = molecular target: HLA-A*33:01
HLA-A*68:01 = molecular target: HLA-A*68:01
HLA-A*03:01 = molecular target: HLA-A*03:01
HLA-A*11:01 = molecular target: HLA-A*11:01
[1] = source organism: SARS coronavirus Tor2
[2] = source organism: Mammarenavirus guanaritoense
[3] = source organism: Vaccinia virus WR
[4] = source organism: Lassa virus Josiah
[5] = source organism: Triticum aestivum

Sequence | Kd (HLA-A*02:06) | Kd (HLA-A*02:03) | Kd (HLA-A*02:02) | Kd (HLA-A*31:01; [3]) | Kd (HLA-A*33:01; [3]) | Kd (HLA-A*68:01; [3]) | Kd (HLA-A*03:01; [3]) | Kd (HLA-A*11:01; [3]) | further results
VIRNEVNDT | ≥ 77100 nM | 820 nM | 19900 nM |  |  |  |  |  | 
QTMLFTMLRK |  |  |  |  |  |  |  |  | Kd (HLA-A*31:01; [1]): 164 nM; Kd (HLA-A*33:01; [1]): 268 nM; Kd (HLA-A*68:01; [1]): 19.9 nM; Kd (HLA-A*03:01; [1]): 11.1 nM; Kd (HLA-A*11:01; [1]): 4.57 nM
ETNIGCAVNT | ≥ 69800 nM | ≥ 37000 nM | ≥ 70000 nM |  |  |  |  |  | 
ETVKMGAFM | ≥ 40400 nM | 7430 nM | 15000 nM |  |  |  |  |  | 
KCSDHYLCLR |  |  |  |  |  |  |  |  | Kd (HLA-A*31:01; [2]): 140 nM; Kd (HLA-A*33:01; [2]): 5780 nM; Kd (HLA-A*68:01; [2]): ≥ 70100 nM; Kd (HLA-A*03:01; [2]): 4760 nM; Kd (HLA-A*11:01; [2]): ≥ 44800 nM
GLYNHNNTTY |  |  |  | 7950 nM | 14200 nM | 938 nM | 21 nM | 75.5 nM | 
FIDRGSIKI | 4030 nM | 12200 nM | 9720 nM |  |  |  |  |  | 
RSAFNDDGIY |  |  |  | ≥ 70000 nM | ≥ 70000 nM | ≥ 31800 nM | ≥ 70100 nM | ≥ 66400 nM | 
ILAALFMYY |  |  |  | 6400 nM | 16000 nM | 36.3 nM | 0.175 nM | 0.309 nM | 
VLTILYYGA | 6240 nM | 17.5 nM | 1.32 nM |  |  |  |  |  | 
NIQKITVFNK |  |  |  | 3.89 nM | 1200 nM | 30.5 nM | 47.4 nM | 5.8 nM | 
SLQVCVQTVR |  |  |  |  |  |  |  |  | Kd (HLA-A*31:01; [1]): 470 nM; Kd (HLA-A*33:01; [1]): 5110 nM; Kd (HLA-A*68:01; [1]): 5790 nM; Kd (HLA-A*03:01; [1]): 13300 nM; Kd (HLA-A*11:01; [1]): 7030 nM
TMPNESRVK |  |  |  | ≥ 61600 nM | ≥ 77700 nM | 2040 nM | 17500 nM | 930 nM | 
VIEYAKSISK |  |  |  | 10800 nM | 17500 nM | 2720 nM | 129 nM | 165 nM | 
CMTSCCSCLK |  |  |  |  |  |  |  |  | Kd (HLA-A*31:01; [1]): 800 nM; Kd (HLA-A*33:01; [1]): 1860 nM; Kd (HLA-A*68:01; [1]): 40.2 nM; Kd (HLA-A*03:01; [1]): 62.7 nM; Kd (HLA-A*11:01; [1]): 80.8 nM
FLWTQSLRR |  |  |  |  |  |  |  |  | Kd (HLA-A*31:01; [4]): 2050 nM; Kd (HLA-A*33:01; [4]): 2900 nM; Kd (HLA-A*68:01; [4]): 320 nM; Kd (HLA-A*03:01; [4]): 40.7 nM; Kd (HLA-A*11:01; [4]): 723 nM
GSSKGNCAIK |  |  |  | 3480 nM | ≥ 29100 nM | 23.1 nM | 25 nM | 26.1 nM | 
LQQHNIVHGK |  |  |  |  |  |  |  |  | Kd (HLA-A*31:01; [5]): 2420 nM; Kd (HLA-A*33:01; [5]): ≥ 70000 nM; Kd (HLA-A*68:01; [5]): ≥ 47900 nM; Kd (HLA-A*03:01; [5]): 1160 nM; Kd (HLA-A*11:01; [5]): 100 nM

Sequence | Kd (HLA-A*02:06) | Kd (HLA-A*02:03) | Kd (HLA-A*02:02) | Kd (HLA-A*31:01; [3]) | Kd (HLA-A*33:01; [3]) | Kd (HLA-A*68:01; [3]) | Kd (HLA-A*03:01; [3]) | Kd (HLA-A*11:01; [3]) | further results
GLESIEQNLT | ≥ 69800 nM | ≥ 61300 nM | 7020 nM |  |  |  |  |  | 
TLLIKTLSPA | 0.728 nM | 1.17 nM | 1.05 nM |  |  |  |  |  | 
KLILAEYIR |  |  |  | 68.1 nM | 9560 nM | 2090 nM | 8070 nM | 15200 nM | 
QMAGVEVRYI | 44.8 nM | 0.138 nM | 0.208 nM |  |  |  |  |  | 
QIYLSDSDNI | 14900 nM | 19600 nM | 1240 nM |  |  |  |  |  | 
DLLFNEKLK |  |  |  | 8150 nM | 744 nM | 29.2 nM | 1920 nM | 188 nM | 
VTPEYIKDLK |  |  |  | 15100 nM | ≥ 70000 nM | 374 nM | 14300 nM | 522 nM | 
DFLKDDTLSK |  |  |  | ≥ 70000 nM | 8000 nM | 10700 nM | 15000 nM | 5760 nM | 
STAEQLSKY |  |  |  | ≥ 77900 nM | ≥ 77700 nM | 54.9 nM | 2430 nM | 133 nM | 
TQLYLGGMSY |  |  |  |  |  |  |  |  | Kd (HLA-A*31:01; [1]): 5840 nM; Kd (HLA-A*33:01; [1]): ≥ 40000 nM; Kd (HLA-A*68:01; [1]): 1350 nM; Kd (HLA-A*03:01; [1]): 36.5 nM; Kd (HLA-A*11:01; [1]): 766 nM
AVTLNRIKIA | 2290 nM | 1290 nM | 1720 nM |  |  |  |  |  | 
FSSLRREHIK |  |  |  | 144 nM | 17400 nM | 94.1 nM | 1020 nM | 277 nM | 
STSPTRTWKV | 504 nM | 717 nM | 397 nM |  |  |  |  |  | 
GIRCVSNLDI | ≥ 32900 nM | 3870 nM | ≥ 20100 nM |  |  |  |  |  | 
HINDQKFDDV | 1190 nM | 1160 nM | 5860 nM |  |  |  |  |  | 
IVTMMKYCSY |  |  |  | 31.6 nM | 235 nM | 41.5 nM | 127 nM | 26.8 nM | 
FIQWTGGNIR |  |  |  | 3860 nM | 2050 nM | 112 nM | ≥ 29800 nM | ≥ 22000 nM | 
ISAEKTPIR |  |  |  | ≥ 41700 nM | ≥ 77700 nM | 275 nM | ≥ 78000 nM | 6020 nM | 
